This is an account of results in the Human Domainome abundance scans (Beltran et al. 2025).

± gives the uncertainty stated by the source.

B1: Homeobox protein SIX3, residues 212 to 262; numbered along this chain, O95343 (parent)
chain: CFKERTRSLLREWYLQDPYPNPSKKRELAQATGLTPTQVGNWFKNRRQRDR

This data set covers variants of B1. The experiment in a line: abundance fitness (aPCA) (normalised: wild type 0, dead -1); higher = more abundant; growth selection in yeast, the domain comes from the species named. Conditions: Homo sapiens.
For CFKERTRSLLREWYLQDPYPNPSKKRELAQATGLTPTQVGNWFINRRQRDR [K44I], the abundance fitness was -0.629 ± 0.16.

Regarding CFKERTRSLLREWYLQDPYPNPSKKRELAQATGLTPTQVGNWFENRRQRDR [K44E], the abundance fitness was -0.086 ± 0.079.

Take CFKERTRSLLREWYLQDPYPNPSKKRELAQATGLTPTQVGNWFWNRRQRDR [K44W]: the abundance fitness was -0.623 ± 0.21.

On to CFKERTRSLLREWYLQDPYPNPSKKRELAQATGLTPTQVGNWFLNRRQRDR [K44L], for which the abundance fitness is -0.407 ± 0.074.

As for CFKERTRSLLREWYLQDPYPNPSKKRELAQATGLTPTQVGNWFSNRRQRDR [K44S], the abundance fitness is -0.192 ± 0.065.

As to CFKERTRSLLREWYLQDPYPNPSKKRELAQATGLTPTQVGNWFANRRQRDR [K44A], the abundance fitness is -0.286 ± 0.044.

For the variant CFKERTRSLLREWYLQDPYPNPSKKRELAQATGLTPTQVGNWFMNRRQRDR [K44M], the abundance fitness was -0.505 ± 0.2.

On to CFKERTRSLLREWYLQDPYPNPSKKRELAQATGLTPTQVGNWFNNRRQRDR [K44N], for which the abundance fitness was found to be 0.017 ± 0.11.

For the variant CFKERTRSLLREWYLQDPYPNPSKKRELAQATGLTPTQVGNWFGNRRQRDR [K44G], the abundance fitness is -0.72 ± 0.1.

On to CFKERTRSLLREWYLQDPYPNPSKKRELAQATGLTPTQVGNWFFNRRQRDR [K44F], for which the abundance fitness was -0.452 ± 0.1.

As for CFKERTRSLLREWYLQDPYPNPSKKRELAQATGLTPTQVGNWFVNRRQRDR [K44V], the abundance fitness was -0.48 ± 0.048.

Regarding CFKERTRSLLREWYLQDPYPNPSKKRELAQATGLTPTQVGNWFTNRRQRDR [K44T], the abundance fitness was -0.376 ± 0.15.

CFKERTRSLLREWYLQDPYPNPSKKRELAQATGLTPTQVGNWFYNRRQRDR [K44Y]: the abundance fitness is -0.496 ± 0.17.

On to CFKERTRSLLREWYLQDPYPNPSKKRELAQATGLTPTQVGNWFCNRRQRDR [K44C], for which the abundance fitness was -0.807 ± 0.24.

On to CFKERTRSLLREWYLQDPYPNPSKKRELAQATGLTPTQVGNWFRNRRQRDR [K44R], for which the abundance fitness was -0.115 ± 0.044.

As to CFKERTRSLLREWYLQDPYPNPSKKRELAQATGLTPTQVGNWFDNRRQRDR [K44D], the abundance fitness is -0.356 ± 0.054.

Consider CFKERTRSLLREWYLQDPYPNPSKKRELAQATGLTPTQVGNWFHNRRQRDR [K44H], for which the abundance fitness was -0.354 ± 0.071.

Turning to CFKERTRSLLREWYLQDPYPNPSKKRELAQATGLTPTQVGNWFQNRRQRDR [K44Q], the abundance fitness turned out to be 0.007 ± 0.095.

For CFKERTRSLLREWYLQDPYPNPSKKRELAQATGLTPTQVGNWWKNRRQRDR [F43W], the abundance fitness is -0.915 ± 0.055.

Turning to CFKERTRSLLREWYLQDPYPNPSKKRELAQATGLTPTQVGNWYKNRRQRDR [F43Y], the abundance fitness was -0.689 ± 0.086.

Regarding CFKERTRSLLREWYLQDPYPNPSKKRELAQATGLTPTQVGNWFKGRRQRDR [N45G], the abundance fitness was -0.58 ± 0.073.

Turning to CFKERTRSLLREWYLQDPYPNPSKKRELAQATGLTPTQVGNWFKPRRQRDR [N45P], the abundance fitness was -0.967 ± 0.23.

For CFKERTRSLLREWYLQDPYPNPSKKRELAQATGLTPTQVGNWFKSRRQRDR [N45S], the abundance fitness is -0.283 ± 0.045.

Regarding CFKERTRSLLREWYLQDPYPNPSKKRELAQATGLTPTQVGNWFKKRRQRDR [N45K], the abundance fitness was -0.368 ± 0.12.

As for CFKERTRSLLREWYLQDPYPNPSKKRELAQATGLTPTQVGNWFKARRQRDR [N45A], the abundance fitness was -0.452 ± 0.1.

In the case of CFKERTRSLLREWYLQDPYPNPSKKRELAQATGLTPTQVGNWFKTRRQRDR [N45T], the abundance fitness is -0.255 ± 0.074.

Regarding CFKERTRSLLREWYLQDPYPNPSKKRELAQATGLTPTQVGNWFKRRRQRDR [N45R], the abundance fitness is -0.063 ± 0.05.

In the case of CFKERTRSLLREWYLQDPYPNPSKKRELAQATGLTPTQVGNWFKYRRQRDR [N45Y], the abundance fitness was -0.725 ± 0.24.

As for CFKERTRSLLREWYLQDPYPNPSKKRELAQATGLTPTQVGNWFKVRRQRDR [N45V], the abundance fitness is -0.493 ± 0.1.

Consider CFKERTRSLLREWYLQDPYPNPSKKRELAQATGLTPTQVGNWFKERRQRDR [N45E], for which the abundance fitness was -0.192 ± 0.098.

As to CFKERTRSLLREWYLQDPYPNPSKKRELAQATGLTPTQVGNWFKLRRQRDR [N45L], the abundance fitness was -0.28 ± 0.06.

In the case of CFKERTRSLLREWYLQDPYPNPSKKRELAQATGLTPTQVGNWFKWRRQRDR [N45W], the abundance fitness was -0.655 ± 0.1.

Turning to CFKERTRSLLREWYLQDPYPNPSKKRELAQATGLTPTQVGNWFKCRRQRDR [N45C], the abundance fitness is -0.396 ± 0.069.

Turning to CFKERTRSLLREWYLQDPYPNPSKKRELAQATGLTPTQVGNWFKMRRQRDR [N45M], the abundance fitness was -0.355 ± 0.1.

Turning to CFKERTRSLLREWYLQDPYPNPSKKRELAQATGLTPTQVGNWFKQRRQRDR [N45Q], the abundance fitness is -0.263 ± 0.052.

With CFKERTRSLLREWYLQDPYPNPSKKRELAQATGLTPTQVGNWFKIRRQRDR [N45I], the abundance fitness was -0.429 ± 0.047.

On to CFKERTRSLLREWYLQDPYPNPSKKRELAQATGLTPTQVGNWFKHRRQRDR [N45H], for which the abundance fitness was -0.209 ± 0.14.

With CFKERTRSLLREWYLQDPYPNPSKKRELAQATGLTPTQVGNWFKNKRQRDR [R46K], the abundance fitness amounted to 0.144 ± 0.097.

As for CFKERTRSLLREWYLQDPYPNPSKKRELAQATGLTPTQVGNWFKNERQRDR [R46E], the abundance fitness is -0.167 ± 0.13.

CFKERTRSLLREWYLQDPYPNPSKKRELAQATGLTPTQVGNWFKNGRQRDR [R46G]: the abundance fitness was -0.937 ± 0.058.

As for CFKERTRSLLREWYLQDPYPNPSKKRELAQATGLTPTQVGNWFKNMRQRDR [R46M], the abundance fitness is -0.182 ± 0.061.

As for CFKERTRSLLREWYLQDPYPNPSKKRELAQATGLTPTQVGNWFKNHRQRDR [R46H], the abundance fitness is -0.269 ± 0.14.

CFKERTRSLLREWYLQDPYPNPSKKRELAQATGLTPTQVGNWFKNQRQRDR [R46Q]: the abundance fitness is -0.045 ± 0.046.

Consider CFKERTRSLLREWYLQDPYPNPSKKRELAQATGLTPTQVGNWFKNPRQRDR [R46P], for which the abundance fitness is -0.611 ± 0.2.

Turning to CFKERTRSLLREWYLQDPYPNPSKKRELAQATGLTPTQVGNWFKNNRQRDR [R46N], the abundance fitness is -0.456 ± 0.24.

As to CFKERTRSLLREWYLQDPYPNPSKKRELAQATGLTPTQVGNWFKNFRQRDR [R46F], the abundance fitness is -0.63 ± 0.083.

On to CFKERTRSLLREWYLQDPYPNPSKKRELAQATGLTPTQVGNWFKNARQRDR [R46A], for which the abundance fitness is -0.306 ± 0.091.

Regarding CFKERTRSLLREWYLQDPYPNPSKKRELAQATGLTPTQVGNWFKNCRQRDR [R46C], the abundance fitness was -0.554 ± 0.16.

Consider CFKERTRSLLREWYLQDPYPNPSKKRELAQATGLTPTQVGNWFKNIRQRDR [R46I], for which the abundance fitness was -0.748 ± 0.25.

Regarding CFKERTRSLLREWYLQDPYPNPSKKRELAQATGLTPTQVGNWFKNLRQRDR [R46L], the abundance fitness is -0.531 ± 0.058.

In the case of CFKERTRSLLREWYLQDPYPNPSKKRELAQATGLTPTQVGNWFKNDRQRDR [R46D], the abundance fitness is -0.67 ± 0.072.
